Assay results published in patent publication US20240279325A1 (Chugai, published 2024).
Where a chain is given by its changes, count along the chain named. In names and notes the source's numbering stands. One block for each binder: values may come before it.

Columns and labels:
[1] = target: T1, human FcγRIIb extracellular domain with C-terminal His tag (human, UniProt P31994 43-217); test: SPR (Biacore), captured antibody, FcγR analyte
T1 sequence: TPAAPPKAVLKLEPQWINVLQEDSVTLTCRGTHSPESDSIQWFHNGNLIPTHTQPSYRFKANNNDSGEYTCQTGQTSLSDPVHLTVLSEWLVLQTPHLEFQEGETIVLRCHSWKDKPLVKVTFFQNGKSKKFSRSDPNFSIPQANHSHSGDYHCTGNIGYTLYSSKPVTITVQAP

[2] = target: T2, human FcγRIIa type H (allotype H131) extracellular domain with C-terminal His tag (human, UniProt P12318 34-217); test: SPR (Biacore), captured antibody, FcγR analyte
T2 construct: also called FcγRIIaH
T2 sequence: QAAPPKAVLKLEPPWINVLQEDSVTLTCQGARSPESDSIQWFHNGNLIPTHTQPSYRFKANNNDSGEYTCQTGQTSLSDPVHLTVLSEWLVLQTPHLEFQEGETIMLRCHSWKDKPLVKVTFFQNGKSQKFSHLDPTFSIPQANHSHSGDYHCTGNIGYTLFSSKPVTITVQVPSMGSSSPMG

[3] = target: T3, human FcγRIIa type R (allotype R131) extracellular domain with C-terminal His tag (human, UniProt P12318 34-217); test: SPR (Biacore), captured antibody, FcγR analyte
T3 construct: also called FcγRIIaR
T3 chain: T2 sequence with H133R

[4] = target: T4, human FcγRIIIa type V (allotype V158) extracellular domain with C-terminal His tag (human, UniProt P08637 17-208); test: SPR (Biacore), captured antibody, FcγR analyte
T4 construct: also called FcγRIIIaV; FcγRIIIa V type
T4 sequence (P08637 other isoform, or with tags, fused parts or gaps): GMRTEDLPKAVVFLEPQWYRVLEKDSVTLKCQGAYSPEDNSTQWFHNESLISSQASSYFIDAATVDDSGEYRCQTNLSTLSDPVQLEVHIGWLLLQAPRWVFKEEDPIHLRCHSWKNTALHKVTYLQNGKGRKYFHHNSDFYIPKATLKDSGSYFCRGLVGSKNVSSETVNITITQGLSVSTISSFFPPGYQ

[5] = target: human FcγRIa extracellular domain with C-terminal His tag (human, UniProt P12314 16-292); test: SPR (Biacore), captured antibody, FcγR analyte
Target sequence in this assay (P12314 16-292): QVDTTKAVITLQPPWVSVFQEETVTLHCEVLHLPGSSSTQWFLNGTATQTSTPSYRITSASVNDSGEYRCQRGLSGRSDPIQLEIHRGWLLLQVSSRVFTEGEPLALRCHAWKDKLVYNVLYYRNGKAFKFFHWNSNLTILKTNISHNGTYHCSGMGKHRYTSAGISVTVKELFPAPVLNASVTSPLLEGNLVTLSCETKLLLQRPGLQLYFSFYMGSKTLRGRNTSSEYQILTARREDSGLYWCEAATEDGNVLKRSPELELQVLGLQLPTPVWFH

[6] = target: T1, human FcγRIIb extracellular domain with …; test: ratio of SPR KDs, reference IL6R-B3/IL6R-L
[7] = target: T3, human FcγRIIa type R (allotype R131) …; test: ratio of SPR KDs, reference IL6R-B3/IL6R-L
[8] = target: T1, human FcγRIIb extracellular domain with …; test: ratio of SPR KDs (FcγRIIaR over FcγRIIb)
[9] = target: T5, human FcγRIIa type R (allotype R131) extracellular domain with C-terminal His tag (human, UniProt P12318 34-217); test: SPR (Biacore), antibody captured, FcγR analyte
T5 construct: also called FcγRIIaR
T5 chain: T2 sequence with H133R

[10] = target: T6, human FcγRIIIa type V (allotype V158) extracellular domain with C-terminal His tag (human, UniProt P08637 17-208); test: SPR (Biacore), antibody captured, FcγR analyte
T6 construct: also called FcγRIIIaV
T6 sequence (P08637 other isoform, or with tags, fused parts or gaps): as the sequence (P08637 other isoform, or with tags, fused parts or gaps) above

[11] = target: T7, FcγRIa extracellular domain with C-terminal His tag (human, UniProt P12314 16-292); test: SPR (Biacore), antibody captured, FcγR as analyte
T7 construct: extracellular domain

[12] = target: T8, FcγRIIb extracellular domain with C-terminal His tag (human, UniProt P31994 43-217); test: SPR (Biacore), antibody captured, FcγR as analyte
T8 construct: extracellular domain
T8 sequence (looked up): T1 sequence

[13] = target: T9, FcγRIIIa type V (allotype V158) extracellular domain with C-terminal His tag (human, UniProt P08637 17-208); test: SPR (Biacore), antibody captured, FcγR as analyte
T9 construct: extracellular domain; also called FcγRIIIaV; FcγRIIIa V type

[14] = target: T10, FcγRIIa type R (allotype R131) extracellular domain with C-terminal His tag (human, UniProt P12318 34-217); test: SPR (Biacore), antibody captured, FcγR as analyte
T10 construct: extracellular domain; also called FcγRIIaR; FcγRIIa R type
T10 sequence (looked up): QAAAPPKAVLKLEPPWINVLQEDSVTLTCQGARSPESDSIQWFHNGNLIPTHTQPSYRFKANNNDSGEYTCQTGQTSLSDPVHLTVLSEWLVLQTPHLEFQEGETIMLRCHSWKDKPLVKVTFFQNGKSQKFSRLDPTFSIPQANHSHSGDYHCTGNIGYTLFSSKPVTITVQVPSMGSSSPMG

[15] = target: T11, human FcγRIIb extracellular domain with C-terminal His tag (human, UniProt P31994 43-217); test: SPR (Biacore), captured antibody, FcγR analyte
T11 construct: extracellular domain; also called FrgRIIb
T11 sequence (looked up): T1 sequence

[16] = target: T12, human FcγRIIa type H (allotype H131) extracellular domain with C-terminal His tag (human, UniProt P12318 34-217); test: SPR (Biacore), captured antibody, FcγR analyte
T12 construct: extracellular domain; also called FcγRIIaH; FrgRIIaH
T12 sequence (looked up): T10 sequence (looked up) with R134H

[17] = target: T13, human FcγRIIa type R (allotype R131) extracellular domain with C-terminal His tag (human, UniProt P12318 34-217); test: SPR (Biacore), captured antibody, FcγR analyte
T13 construct: extracellular domain; also called FcγRIIaR; FrgRIIaR
T13 sequence (looked up): T10 sequence (looked up)

[18] = target: T14, human FcγRIIIa type V (allotype V158) extracellular domain with C-terminal His tag (human, UniProt P08637 17-208); test: SPR (Biacore), captured antibody, FcγR analyte
T14 construct: extracellular domain; also called FcγRIIIaV; FrgRIIIaV
T14 sequence (P08637 17-208 F176V): as the sequence (P08637 other isoform, or with tags, fused parts or gaps) above, with S179A counted along it

[19] = target: T15, human FcγRIa extracellular domain with C-terminal His tag (human, UniProt P12314 16-292); test: SPR (Biacore), captured antibody, FcγR analyte
T15 construct: extracellular domain; also called FrgRIa
T15 sequence (P12314 16-292): as the sequence (P12314 16-292) above

[20] = target: T16, human FcγRIIa type H (allotype H131) extracellular domain with C-terminal His tag (human, UniProt P12318 34-217); test: SPR (Biacore), antibody captured, FcγR analyte
T16 construct: extracellular domain; also called FcγRIIaH; not shown: His tag at the C terminus
T16 sequence (looked up): T10 sequence (looked up) with R134H

[21] = target: T17, human FcγRIIb extracellular domain with C-terminal His tag (human, UniProt P31994 43-217); test: SPR (Biacore), antibody captured, FcγR analyte
T17 construct: extracellular domain; not shown: His tag at the C terminus
T17 sequence (looked up): T1 sequence

[22] = target: T2, human FcγRIIa type H (allotype H131) …; test: SPR (Biacore), captured antibody, FcγR analyte; remark: listed apart in the source
[23] = target: T4, human FcγRIIIa type V (allotype V158) …; test: SPR (Biacore), captured antibody, FcγR analyte; remark: listed apart in the source
human FcRn = target: T18, human FcRn (human, UniProt P55899 24-290; P61769 21-119, limits assumed); test: SPR Biacore, pH 7.0
T18 construct: also called human neonatal Fc receptor
Experimental: The binding between the antibody and human FcRn under a neutral condition (pH 7.0) was analyzed with a BIACORE™ system.

[24] = target: T19, FcγRIa extracellular domain, C-terminal His tag (human, UniProt P12314 16-292); test: SPR (Biacore), antibody captured on chip, FcγR extracellular domain as analyte, 25 C
T19 construct: extracellular domain; not shown: His tag at the C terminus

[25] = target: T3, human FcγRIIa type R (allotype R131) …; test: SPR (Biacore), captured antibody, FcγR analyte

T9 sequence (P08637 17-208 F176V): as the sequence (P08637 other isoform, or with tags, fused parts or gaps) above, with S179A counted along it
T19 sequence (P12314 16-292): as the sequence (P12314 16-292) above
T7 sequence (P12314 16-292): as above

Kd [9]: 3500 nM
Kd [10]: 69000 nM
B2: IL6R-BP112/IL6R-L (antibody, human IgG1, kappa, name in EU numbering)
heavy: QVQLQESGPGLVKPSETLSLTCAVSGHSISHDHAWSWVRQPPGEGLEWIGFISYSGITNYNPSLQGRVTISRDNSKNTLYLQMNSLRAEDTAVYYCARSLARTTAMDYWGEGTLVTVSSASTKGPSVFPLAPSSKSTSGGTAALGCLVKDYFPEPVTVSWNSGALTSGVHTFPAVLQSSGLYSLSSVVTVPSSSLGTQTYICNVNHKPSNTKVDKKVEPKSCDKTHTCPPCPAPELLGGDSVFLFPPKPKDTLMISRTPEVTCVVVDVSHEDGEVKFNWYVDGVEVHNAKTKPREEQYNSTYRVVSVLTVLHQDWLNGKEYKCKVSNKALPAPIEKTISKAKGQPREPQVYTLPPSRDELTKNQVSLTCLVKGFYPSDIAVEWESNGQPENNYKTTPPVLDSDGSFFLYSKLTVDKSRWQQGNVFSCSVMHEALHNHYTQESLSLSP
light: not shown
notes: Alterations introduced into IL6R-B3; also called P238D/P271G; copies: 2 + 2

relative binding activity [15]: 164 % of IL6R-BF648/IL6R-L binding
relative binding activity [16]: 188 % of IL6R-BF648/IL6R-L binding
relative binding activity [17]: 449 % of IL6R-BF648/IL6R-L binding
relative binding activity [18]: 157 % of IL6R-BF648/IL6R-L binding
relative binding activity [19]: 104 % of IL6R-BF648/IL6R-L binding
B4: IL6R-BP198/IL6R-L (antibody, human IgG1, kappa, name in EU numbering)
heavy: B2 heavy with E235D, L236Y, H270D, K328A, A332K
light: not shown
notes: Alterations introduced into IL6R-B3, EU numbering; copies: 2 + 2

Kd [20]: 92000 nM
Kd [21]: 54 nM
B5: IL6R-BP202/IL6R-L (antibody, human IgG1, kappa, name in EU numbering)
heavy: B2 heavy with G239D, K328A, A332R
light: not shown
notes: EU numbering; copies: 2 + 2

Kd [23]: 9000 nM
B7: IL6R-BP462/IL6R-L (antibody, human IgG1, kappa, name in EU numbering)
heavy: B2 heavy with E235D, G239D, S269A, H270E, A332R, P398V
light: not shown
notes: copies: 2 + 2

Kd (human FcRn): 110 nM
B8: F414 (antibody, human IgG1, kappa)
heavy: B2 heavy with D240P, P259V, G273P, T309S, M430L, N436Y, E441K
light: not shown
notes: copies: 2 + 2

Kd [24]: 20 nM
B9: IL6R-BP182/IL6R-L (antibody, human IgG1, kappa, name in EU numbering)
heavy: B2 heavy with E235D, Y298D, A332K
light: not shown
notes: copies: 2 + 2

More lines, now with the values behind:

B1: IL6R-BP478/IL6R-L (antibody)
heavy: QVQLQESGPGLVKPSETLSLTCAVSGHSISHDHAWSWVRQPPGEGLEWIGFISYSGITNYNPSLQGRVTISRDNSKNTLYLQMNSLRAEDTAVYYCARSLARTTAMDYWGEGTLVTVSSASTKGPSVFPLAPCSRSTSESTAALGCLVKDYFPEPVTVSWNSGALTSGVHTFPAVLQSSGLYSLSSVVTVPSSSLGTKTYTCNVDHKPSNTKVDKRVESKYGPPCPPCPAPDLLGDDSVFLFPPKPKDTLMISRTPEVTCVVVDVSDEDGEVKFNWYVDGVEVHNAKTKPREEQDNSTYRVVSVLTVLHQDWLNGKEYKCKVSNKALPRPIEKTISKAKGQPREPQVYTLPPSRDELTKNQVSLTCLVKGFYPSDIAVEWESNGQPENNYKTTPPVLDSDGSFFLYSKLTVDKSRWQQGNVFSCSVMHEALHNHYTQESLSLSP
light: not shown
notes: copies: 2 + 2
Kd [1]: 19 nM
Kd [2]: 6700 nM
Kd [3]: 540 nM
Kd [4]: 35000 nM
Kd [5]: 7.7 nM
KD(IIb) of parent polypeptide/KD(IIb) of altered polypeptide [6]: 161
KD(IIaR) of parent polypeptide/KD(IIaR) of altered polypeptide [7]: 2
KD(IIaR)/KD(IIb) [8]: 28

B3: IL6R-BP253/IL6R-L (antibody, human IgG1, kappa, name in EU numbering)
heavy: B2 heavy with D240P, S269E, G273P, L330F
light: not shown
notes: comparison control with existing alterations; copies: 2 + 2
Kd [11]: 0.0067 nM
Kd [12]: 11 nM
Kd [13]: 3600 nM
Kd [14]: 2.1 nM

B6: IL6R-BP470/IL6R-L (antibody, human IgG1, kappa, name in EU numbering)
heavy: B2 heavy with E235D, G239D, H270D, Y298D, A332R, E335T
light: not shown
notes: copies: 2 + 2
Kd [22]: 10000 nM

B10: IL6R-BP514/IL6R-L (antibody, human IgG1, kappa, name in EU numbering)
heavy: B2 heavy with E235D, G239D, H270E, E274F
light: not shown
notes: copies: 2 + 2
Kd [25]: 3000 nM
